# In the supplement of paper PMC10065799, “High-throughput profiling of sequence recognition by tyrosine kinases and SH2 domains using bacterial peptide display” (eLife, 2023):
# Tests used:
# AncSZ = test: phosphorylation enrichment, bacterial display (enrichment ratio); higher = better substrate or ligand; peptides without Tyr show the background
# EPHB1 = EPHB1 (UniProt P54762); test: as above
# EPHB2 = EPHB2 (UniProt P29323); test: as above
# FGFR1 = FGFR1 (UniProt P11362); test: as above
# FGFR3 = FGFR3 (UniProt P22607); test: as above
# Chain of FGFR3 (P22607 whole entry, looked up): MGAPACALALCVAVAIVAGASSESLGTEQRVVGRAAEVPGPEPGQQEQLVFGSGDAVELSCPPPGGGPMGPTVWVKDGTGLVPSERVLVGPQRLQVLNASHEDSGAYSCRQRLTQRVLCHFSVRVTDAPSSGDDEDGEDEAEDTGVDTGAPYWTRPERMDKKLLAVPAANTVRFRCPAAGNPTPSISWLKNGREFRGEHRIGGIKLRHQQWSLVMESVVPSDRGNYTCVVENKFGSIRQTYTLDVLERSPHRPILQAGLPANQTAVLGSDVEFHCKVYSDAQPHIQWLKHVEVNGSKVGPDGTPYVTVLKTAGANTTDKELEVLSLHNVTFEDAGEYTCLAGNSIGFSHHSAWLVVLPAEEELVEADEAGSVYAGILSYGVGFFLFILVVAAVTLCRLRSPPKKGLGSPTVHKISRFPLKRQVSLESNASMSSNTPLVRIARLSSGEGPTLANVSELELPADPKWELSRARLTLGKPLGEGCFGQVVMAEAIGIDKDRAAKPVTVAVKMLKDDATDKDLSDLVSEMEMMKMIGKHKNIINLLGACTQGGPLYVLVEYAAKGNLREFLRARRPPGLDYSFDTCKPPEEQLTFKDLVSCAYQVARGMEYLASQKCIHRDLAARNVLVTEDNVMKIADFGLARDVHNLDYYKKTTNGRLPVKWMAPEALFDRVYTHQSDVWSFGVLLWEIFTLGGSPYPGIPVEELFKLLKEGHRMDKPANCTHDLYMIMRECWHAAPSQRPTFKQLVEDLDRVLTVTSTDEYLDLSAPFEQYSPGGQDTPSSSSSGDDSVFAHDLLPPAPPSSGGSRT
# Fer (mouse) = test: as above
# Fes = Fes (UniProt P07332); test: as above
# Chain of Fes (P07332 whole entry, looked up): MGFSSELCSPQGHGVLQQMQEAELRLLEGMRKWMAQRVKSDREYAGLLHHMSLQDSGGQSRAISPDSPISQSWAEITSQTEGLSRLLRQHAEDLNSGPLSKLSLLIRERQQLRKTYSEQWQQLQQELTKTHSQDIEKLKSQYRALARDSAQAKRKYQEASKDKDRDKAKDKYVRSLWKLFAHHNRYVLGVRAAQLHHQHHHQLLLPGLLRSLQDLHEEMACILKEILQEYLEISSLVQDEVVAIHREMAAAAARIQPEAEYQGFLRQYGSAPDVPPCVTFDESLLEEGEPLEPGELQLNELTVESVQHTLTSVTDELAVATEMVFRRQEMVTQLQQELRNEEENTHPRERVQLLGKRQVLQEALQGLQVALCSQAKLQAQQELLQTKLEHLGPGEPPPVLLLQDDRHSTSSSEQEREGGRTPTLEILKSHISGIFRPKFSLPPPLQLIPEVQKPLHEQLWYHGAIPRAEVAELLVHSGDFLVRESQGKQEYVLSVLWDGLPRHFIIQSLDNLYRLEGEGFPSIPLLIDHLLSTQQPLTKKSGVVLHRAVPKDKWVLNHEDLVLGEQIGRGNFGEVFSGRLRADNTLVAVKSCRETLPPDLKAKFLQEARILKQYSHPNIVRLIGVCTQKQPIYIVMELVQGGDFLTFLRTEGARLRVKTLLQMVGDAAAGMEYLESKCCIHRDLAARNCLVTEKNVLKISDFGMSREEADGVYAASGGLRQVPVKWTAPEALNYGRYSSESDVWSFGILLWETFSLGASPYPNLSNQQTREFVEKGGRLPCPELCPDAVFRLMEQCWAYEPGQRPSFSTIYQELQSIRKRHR
# Fyn = Fyn (UniProt P06241); test: as above
# Hck = Hck (UniProt P08631); test: as above
# Chain of Hck (P08631 whole entry, looked up): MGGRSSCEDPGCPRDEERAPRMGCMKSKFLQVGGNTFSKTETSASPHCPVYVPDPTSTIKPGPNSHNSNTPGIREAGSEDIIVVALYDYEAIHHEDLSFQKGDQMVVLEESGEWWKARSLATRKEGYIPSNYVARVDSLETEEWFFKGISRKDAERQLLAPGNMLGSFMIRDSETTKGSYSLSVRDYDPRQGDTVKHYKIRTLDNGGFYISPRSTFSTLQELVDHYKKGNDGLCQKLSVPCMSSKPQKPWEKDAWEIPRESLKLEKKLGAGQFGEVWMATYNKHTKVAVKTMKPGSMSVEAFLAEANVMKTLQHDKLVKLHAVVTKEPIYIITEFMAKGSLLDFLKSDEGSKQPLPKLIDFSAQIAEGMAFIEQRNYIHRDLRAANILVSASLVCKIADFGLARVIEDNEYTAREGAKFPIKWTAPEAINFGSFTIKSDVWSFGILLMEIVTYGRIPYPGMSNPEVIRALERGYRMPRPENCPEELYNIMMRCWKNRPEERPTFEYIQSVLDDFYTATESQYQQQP
# Jak2 = Jak2 (UniProt O60674); test: as above
# MERTK = MERTK (UniProt Q12866); test: as above
# Chain of MERTK (Q12866 whole entry, looked up): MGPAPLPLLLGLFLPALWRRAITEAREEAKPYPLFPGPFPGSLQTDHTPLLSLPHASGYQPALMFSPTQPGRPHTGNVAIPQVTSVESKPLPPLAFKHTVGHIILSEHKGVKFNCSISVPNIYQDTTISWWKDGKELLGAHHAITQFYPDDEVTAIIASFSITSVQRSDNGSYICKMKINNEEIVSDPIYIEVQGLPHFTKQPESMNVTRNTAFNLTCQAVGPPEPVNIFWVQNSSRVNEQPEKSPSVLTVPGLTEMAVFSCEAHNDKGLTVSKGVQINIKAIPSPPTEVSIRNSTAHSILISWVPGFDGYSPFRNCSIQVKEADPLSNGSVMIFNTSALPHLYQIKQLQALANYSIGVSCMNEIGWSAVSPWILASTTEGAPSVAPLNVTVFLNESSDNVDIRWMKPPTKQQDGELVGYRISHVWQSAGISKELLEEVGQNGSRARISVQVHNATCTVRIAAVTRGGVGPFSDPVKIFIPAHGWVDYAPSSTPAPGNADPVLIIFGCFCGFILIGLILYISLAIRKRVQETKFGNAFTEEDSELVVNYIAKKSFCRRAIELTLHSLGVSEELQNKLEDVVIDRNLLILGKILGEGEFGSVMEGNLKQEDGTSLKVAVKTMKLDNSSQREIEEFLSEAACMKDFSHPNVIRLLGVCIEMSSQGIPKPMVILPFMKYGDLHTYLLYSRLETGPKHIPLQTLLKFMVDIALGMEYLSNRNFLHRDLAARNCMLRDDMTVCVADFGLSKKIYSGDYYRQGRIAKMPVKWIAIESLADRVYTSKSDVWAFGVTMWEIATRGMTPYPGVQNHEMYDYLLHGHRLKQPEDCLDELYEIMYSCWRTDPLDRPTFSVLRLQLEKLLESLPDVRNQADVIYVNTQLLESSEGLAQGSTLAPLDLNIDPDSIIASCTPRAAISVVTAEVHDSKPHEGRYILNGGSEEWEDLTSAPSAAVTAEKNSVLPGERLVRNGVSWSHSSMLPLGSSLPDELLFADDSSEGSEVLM
# c-Abl (mouse) = test: as above
# c-Src = test: as above
# Grb2 SH2 = Grb2 SH2 (UniProt P62993); test: SH2 binding enrichment of the phosphorylated peptide, bacterial display (enrichment ratio); higher = better substrate or ligand; peptides without Tyr show the background
# SHP2-C SH2 = test: as above
# c-Src SH2 = test: as above
# 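For SH2 binding enrichment of the phosphorylated peptide, bacterial display in this document: peptide library displayed on the E. coli surface as eCPX fusions, selected cells deep-sequenced, score is each peptide's frequency after selection divided by its frequency in the input.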
# 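For phosphorylation enrichment, bacterial display in this document: 11-residue human phosphosite peptides and single-mutation variants displayed on the E. coli surface, counted by deep sequencing, each peptide's frequency after selection divided by its frequency in the unselected input library; frequency after pTyr selection over input frequency; kinase dosed for 20-30% of maximal phosphorylation in three min.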
# Chain of EPHB1 (P54762 whole entry, looked up): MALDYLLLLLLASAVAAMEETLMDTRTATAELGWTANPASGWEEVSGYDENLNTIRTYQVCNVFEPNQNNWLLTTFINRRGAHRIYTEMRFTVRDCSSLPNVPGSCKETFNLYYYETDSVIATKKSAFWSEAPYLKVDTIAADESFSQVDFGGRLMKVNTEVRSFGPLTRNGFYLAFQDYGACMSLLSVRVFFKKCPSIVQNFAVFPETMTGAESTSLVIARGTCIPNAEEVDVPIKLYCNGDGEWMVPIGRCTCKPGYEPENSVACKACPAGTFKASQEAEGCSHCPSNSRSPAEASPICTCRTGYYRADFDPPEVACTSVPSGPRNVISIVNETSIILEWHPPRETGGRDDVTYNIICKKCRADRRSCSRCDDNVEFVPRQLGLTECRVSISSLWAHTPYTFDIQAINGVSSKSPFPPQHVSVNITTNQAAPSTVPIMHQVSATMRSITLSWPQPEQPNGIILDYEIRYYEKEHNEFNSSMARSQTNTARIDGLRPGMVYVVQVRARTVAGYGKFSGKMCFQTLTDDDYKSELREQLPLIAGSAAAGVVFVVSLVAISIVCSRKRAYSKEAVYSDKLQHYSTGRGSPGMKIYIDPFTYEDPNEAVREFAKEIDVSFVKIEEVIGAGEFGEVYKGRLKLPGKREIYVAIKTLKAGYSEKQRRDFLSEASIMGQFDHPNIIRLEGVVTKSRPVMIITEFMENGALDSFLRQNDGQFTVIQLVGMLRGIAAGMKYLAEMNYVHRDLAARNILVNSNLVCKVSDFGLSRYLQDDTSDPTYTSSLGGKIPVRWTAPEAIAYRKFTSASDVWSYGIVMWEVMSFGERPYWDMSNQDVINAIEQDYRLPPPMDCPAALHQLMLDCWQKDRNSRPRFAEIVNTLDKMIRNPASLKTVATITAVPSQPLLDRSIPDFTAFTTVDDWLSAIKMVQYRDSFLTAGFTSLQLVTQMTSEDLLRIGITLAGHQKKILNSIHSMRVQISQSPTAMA
# Chain of FGFR1 (P11362 whole entry, looked up): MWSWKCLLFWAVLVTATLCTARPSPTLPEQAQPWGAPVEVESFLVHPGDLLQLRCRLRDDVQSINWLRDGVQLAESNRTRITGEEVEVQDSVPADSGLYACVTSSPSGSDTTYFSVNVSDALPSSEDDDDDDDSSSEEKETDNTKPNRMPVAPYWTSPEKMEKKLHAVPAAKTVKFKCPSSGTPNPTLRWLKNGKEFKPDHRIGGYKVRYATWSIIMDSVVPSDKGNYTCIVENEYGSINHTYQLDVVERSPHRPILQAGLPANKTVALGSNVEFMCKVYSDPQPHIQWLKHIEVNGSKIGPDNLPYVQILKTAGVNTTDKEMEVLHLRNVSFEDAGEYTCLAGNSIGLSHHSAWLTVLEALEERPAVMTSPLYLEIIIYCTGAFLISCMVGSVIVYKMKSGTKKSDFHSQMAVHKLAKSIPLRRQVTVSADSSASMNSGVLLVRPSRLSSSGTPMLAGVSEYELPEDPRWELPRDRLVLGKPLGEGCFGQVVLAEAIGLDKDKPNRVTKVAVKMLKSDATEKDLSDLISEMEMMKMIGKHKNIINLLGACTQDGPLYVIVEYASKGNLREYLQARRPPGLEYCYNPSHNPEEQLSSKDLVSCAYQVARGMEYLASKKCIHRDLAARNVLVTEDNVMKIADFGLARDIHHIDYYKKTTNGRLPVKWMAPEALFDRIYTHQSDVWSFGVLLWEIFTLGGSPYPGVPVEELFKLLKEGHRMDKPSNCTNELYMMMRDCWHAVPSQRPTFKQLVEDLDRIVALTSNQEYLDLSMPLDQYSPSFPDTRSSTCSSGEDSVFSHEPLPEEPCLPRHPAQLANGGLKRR
Sequence,phosphorylation enrichment (AncSZ),phosphorylation enrichment (EPHB1),phosphorylation enrichment (EPHB2),phosphorylation enrichment (FGFR1),phosphorylation enrichment (FGFR3),phosphorylation enrichment (Fer (mouse)),phosphorylation enrichment (Fes),phosphorylation enrichment (Fyn),phosphorylation enrichment (Hck),phosphorylation enrichment (Jak2),phosphorylation enrichment (MERTK),phosphorylation enrichment (c-Abl (mouse)),phosphorylation enrichment (c-Src),SH2 binding enrichment (Grb2 SH2),SH2 binding enrichment (SHP2-C SH2),SH2 binding enrichment (c-Src SH2)
LFEDHYLLGTS [ASS1_Y87_R86H_YF],1.27,0.618,0.586,0.494,0.707,0.569,1.15,0.783,0.566,1.15,0.384,0.662,1.01,1.22,0.634,0.534
LFQAKYQIRYR [CRLF1_Y272],1.07,0.79,0.517,0.566,0.789,0.325,1.33,0.477,0.763,0.949,0.465,0.779,0.531,1.46,1.67,1.22
LFSGDYFRIQG [DDR2_Y740_YF],4.61,6.99,4.1,23.1,15.7,0.739,2.04,1.36,1.57,23.4,2.08,1.67,3.77,1.03,0.652,0.674
LFSNAYLNDLA [ALDH1A1_Y119_YF],1.14,0.794,0.723,0.986,1.25,0.688,1.58,1.12,1,1.11,0.807,1.14,1.15,4.23,0.627,1.29
LGGSPYPSVPV [FGFR1_Y701_G703S],1.04,0.85,0.735,0.784,0.646,0.675,1.25,0.564,0.817,0.645,0.614,0.747,0.453,0.915,0.608,0.476
LGQRIYQYIRS [DYRK1B_Y271_Q275R],1.42,11.1,3.2,1.54,0.959,4.1,1.56,1.65,5.58,1.98,7.5,2.38,3.09,1.14,1.51,3.25
LHAAAYRNALA [UQCRC2_Y182],0.686,0.362,0.491,0.415,0.402,0.33,0.871,0.55,0.484,0.594,0.407,0.303,0.398,0.691,0.682,0.559
LIDGYYRLTED [JAK2_Y373_A377E],1.48,0.708,0.914,1.51,1.57,0.564,1.32,0.625,0.778,7.39,0.574,1.07,0.899,0.886,4.88,9
LIHLHYIRRDF [BBS4_Y43_K46R_YF],1.1,0.669,0.707,0.521,0.732,0.564,1.02,0.503,0.581,0.972,0.419,0.333,0.448,1.28,0.817,0.854
LISVSYDDWDF [GRIN2A_Y281_YF],3.36,1.46,1,1.08,1.09,19.4,2.44,0.953,0.893,2.06,1.03,1.64,1.07,1.12,0.797,1.36
LITTLYSGFLG [KCNQ1_Y267_I268S],1.38,0.965,0.611,0.339,0.755,0.824,1.08,5.49,3.96,0.992,3.39,1.22,6.52,1.54,1.56,1.44
LLQKTYNYNVL [SLC4A1_Y553_P548L],1.26,0.745,1.7,1.23,1.06,0.496,1.52,1.07,1.01,0.834,0.694,0.716,0.851,1.26,0.866,2.2
LLREWYVQDPF [SIX3_Y225_L226V_YF],0.961,0.673,0.621,0.766,0.998,0.576,0.977,0.438,0.522,0.892,0.443,0.528,0.466,1.03,1,1.11
LLTALYFISWG [KCNH2_Y780_R784W],1.51,1.04,0.786,0.847,1.23,0.782,1.58,1.59,2.03,1.95,3.92,1.09,2.27,1.01,0.891,0.666
LNAGAYSKVVQ [PPT1_Y172],1.12,0.703,0.557,0.41,0.686,1.02,0.974,0.529,0.357,1.28,0.627,0.994,0.84,0.623,5.07,1.71
LNEVGYDDIGG [VCP_Y203],1.42,1.4,1.04,1.07,1.72,0.861,2.47,1.15,1.36,1.9,0.827,1.09,0.812,0.974,1.04,12.2
LPEENYQVLCF [ARHGAP1_Y365_R369C],3.61,9.13,5.96,8.04,5.59,7.5,3.56,1.64,4.43,5.17,3.58,3.14,5.73,0.739,0.49,0.82
LPKEQYLCTKE [AFG3L2_Y614_Y616C],0.858,0.463,0.428,0.482,0.653,0.562,1.01,0.466,0.409,0.868,0.409,0.723,0.427,0.883,0.533,0.584
LQFKNYQQLFD [MAN2A1_Y442],0.944,0.641,0.532,0.453,0.679,0.391,0.985,0.379,0.527,0.882,0.358,0.636,0.377,0.76,0.784,1.58
LQLLGHRPVFS [CHST6_Y358_Y358H_YF],0.901,0.847,0.783,0.657,0.785,0.817,1.33,0.786,0.957,1.03,0.602,0.919,0.579,0.912,0.923,0.544
LQRCKYSHMEP [TEX45_Y434],1.21,0.513,0.876,0.663,0.957,0.582,1.35,0.375,0.672,1.5,0.614,1.16,0.982,0.64,1.1,0.78
LRAGVYREKDQ [DNM2_Y626_P627R],0.882,0.392,0.295,0.335,0.524,0.349,0.636,0.35,0.449,0.38,0.398,0.514,0.448,0.646,0.478,0.427
LRSELYFLIAR [PHIP_Y16],2.02,1.54,1.4,3.06,3.17,0.916,1.71,0.769,1.93,3.62,7.59,1.63,1.5,1.44,1.03,1.05
LRSELYSLIAR [PHIP_Y16_F17S],0.919,5.23,1.36,0.693,0.811,4.78,1.11,1.63,7.53,0.54,11,0.566,2.26,1.15,1.05,1.89
LRVHSYKSMQP [DRC7_Y516],0.797,0.526,0.515,0.479,0.671,0.565,0.769,0.567,0.684,0.476,0.423,0.785,0.55,1.25,0.957,0.607
LSAPEYGPKLK [TBC1D14_Y46],0.592,0.539,0.425,0.58,0.565,0.458,0.514,0.451,0.537,0.409,0.383,0.456,0.412,1.02,0.665,0.5
LSFSEYASVQV [SIRPA_Y496_P491L],2.44,7.83,8.7,2.22,2.1,5.53,1.64,3.8,2.93,1.1,0.671,4.03,2.14,0.934,0.783,0.671
LTDLRYKVSGL,0.581,0.379,0.479,0.496,0.437,0.404,0.725,0.352,0.377,0.575,0.427,0.565,0.46,0.761,0.498,0.397
LTELGYSFVTT [ACTA1_Y200_R198L],3.14,1.44,1.46,5.04,3.42,2.05,3.61,1.88,1.9,1.93,1.12,1.51,1.11,0.797,3.2,8.8
